The series addresses PHR1 S11A-His (UniProt Q94CL7 1-409, S11A). The series can be described thus: EMSA; without SnRK1; 10 mM Tris-HCl pH 8.0, 100 mM NaCl, 10% glycerol, 2 mM DTT, 0.05% NP-40; 0.5 ug protein in 30 ul, 22 C, 30 min; 4.5% acrylamide gel, 0.5x TBE. Particulars: protein: recombinant; tags: His (pET28b(+)); chain copies: 2; label: 32P 5' end label on sense strand (T4 PNK); blunt.

We go through one molecule from paper PMC10107491, “Phosphorylation of S11 in PHR1 negatively controls its transcriptional activity”.

Chain of PHR1 S11A-His (Q94CL7 whole entry S11A): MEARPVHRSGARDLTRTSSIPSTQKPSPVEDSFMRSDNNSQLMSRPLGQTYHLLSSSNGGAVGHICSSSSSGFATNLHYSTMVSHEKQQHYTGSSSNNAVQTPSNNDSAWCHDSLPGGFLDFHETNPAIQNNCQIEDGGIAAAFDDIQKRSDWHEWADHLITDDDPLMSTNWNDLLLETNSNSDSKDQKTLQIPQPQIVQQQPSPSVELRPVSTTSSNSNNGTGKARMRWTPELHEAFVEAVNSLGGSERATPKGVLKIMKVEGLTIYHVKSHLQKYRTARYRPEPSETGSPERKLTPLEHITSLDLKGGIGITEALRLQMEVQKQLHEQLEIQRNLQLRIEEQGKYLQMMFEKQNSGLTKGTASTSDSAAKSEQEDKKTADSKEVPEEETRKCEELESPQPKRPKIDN

B1: AtIPS1 P1BS probe (dsDNA)
DNA 1: CAATTTTGGTAACGGCATATTCCATCGGATGATCCAAAATTCTCAAAA
DNA 2: TTTTGAGAATTTTGGATCATCCGATGGAATATGCCGTTACCAAAATTG
As to B1, the binding result is reported as “binds”.
